This is an account of results in PMC7355856 (2020).

Assay [1] addresses T1, α-synuclein (human, UniProt P37840 1-140). Put plainly: SPR. Background: In SPR one partner is held on a chip, and binding of the other changes the refractive index at the surface.
In assay [2] the target is T1, α-synuclein. Briefly: SPR. The source holds these as a separate data set.

B1: prolyl oligopeptidase (POP) (enzyme)
chain: MLSLQYPDVYRDETAVQDYHGHKICDPYAWLEDPDSEQTKAFVEAQNKITVPFLEQCPIRGLYKERMTELYDYPKYSCHFKKGKRYFYFYNTGLQNQRVLYVQDSLEGEARVFLDPNILSDDGTVALRGYAFSEDGEYFAYGLSASGSDWVTIKFMKVDGAKELPDVLERVKFSCMAWTHDGKGMFYNSYPQQDGKSDGTETSTNLHQKLYYHVLGTDQSEDILCAEFPDEPKWMGGAELSDDGRYVLLSIREGCDPVNRLWYCDLQQESSGIAGILKWVKLIDNFEGEYDYVTNEGTVFTFKTNRQSPNYRVINIDFRDPEESKWKVLVPEHEKDVLEWIACVRSNFLVLCYLHDVKNILQLHDLTTGALLKTFPLDVGSIVGYSGQKKDTEIFYQFTSFLSPGIIYHCDLTKEELEPRVFREVTVKGIDASDYQTVQIFYPSKDGTKIPMFIVHKKGIKLDGSHPAFLYGYGGFNISITPNYSVSRLIFVRHMGGILAVANIRGGGEYGETWHKGGILANKQNCFDDFQCAAEYLIKEGYTSPKRLTINGGSNGGLLVAACANQRPDLFGCVIAQVGVMDMLKFHKYTIGHAWTTDYGCSDSKQHFEWLVKYSPLHNVKLPEADDIQYPSMLLLTADHDDRVVPLHSLKFIATLQYIVGRSRKQSNPLLIHVDTKAGHGAGKPTAKVIEEVSDMFAFIARCLNVDWIP
Usually koff stands for a measure of how fast the partners let go of each other. A higher koff goes with a short-lived complex. In general, Kd refers to a measure of binding affinity in units of concentration. For the molecule B1, the koff in assay [1] was 0.00118 s⁻¹. The same molecule displayed a Kd in assay [2] of 5.32 nM.
